Substrate: [H][C@@]1(O[C@H]2[C@H](O)[C@@H](O)[C@H](Oc3ccc([N+](=O)[O-])cc3)O[C@@H]2CO)O[C@H](CO)[C@H](O)[C@H](O)[C@H]1O
Assay: p-nitrophenol release, Lineweaver-Burk
Format: biochemical, Aspergillus fumigatus
Details: 50 °C, 30 min, 25 mM citrate pH 5.0

B1: AfCel7A (Aspergillus fumigatus Af293) (protein)
chain: QQVGTSQAEVHPSMTWQSCTAGGSCTTNNGKVVIDANWRWVHKVGDYTNCYTGNTWDTTICPDDATCASNCALEGANYESTYGVTASGNSLRLNFVTTSQQKNIGSRLYMMKDDSTYEMFKLLNQEFTFDVDVSNLPCGLNGALYFVAMDADGGMSKYPTNKAGAKYGTGYCDSQCPRDLKFINGQANVEGWQPSSNDANAGTGNHGSCCAEMDIWEANSISTAFTPHPCDTPGQVMCTGDACGGTYSSDRYGGTCDPDGCDFNSFRQGNKTFYGPGMTVDTKSKFTVVTQFITDDGTSSGTLKEIKRFYVQNGKVIPNSESTWTGVSGNSITTEYCTAQKSLFQDQNVFEKHGGLEGMGAALAQGMVLVMSLWDDHSANMLWLDSNYPTTASSTTPGVARGTCDISSGVPADVEANHPDAYVVYSNIKVGPIGSTFNSGGSNPGGGTTTTTTTQPTTTTTTAGNPGGTGVAQHYGQCGGIGWTGPTTCASPYTCQKLNDYYSQCL
Km: 128 ± 1 µM | kcat: 0.08055 ± 0.00033 s⁻¹
